Test results reported in publication PMC12325954.

Biological target: A. franciscana ATP synthase c-subunit (c8-ring) (A. franciscana (endogenous in A. franciscana mitochondria))
Assay: cryo-EM structure; single-particle cryo-EM of the ATP synthase monomer purified from A. franciscana mitochondria in DDM at pH 7.0; rotational states 1, 2 and 3a; local refinement of F1 and FO

stoichiometry N: 8
Substance: A. franciscana ATP synthase c-subunit (c8-ring) (natural protein)
